Results on 6 molecules are retold here after patent US20120195913A1 (Novartis, published 2012).

In general, IC50 refers to the concentration needed to halve the response being measured. A lower IC50 goes with inhibition by little substance. In general, EC50 refers to the concentration needed to bring the measured effect to its halfway point. Low values mean higher potency in that assay, high ones lower potency in that assay.

For one assay, the target named is T1, BAFFR:Fc fusion protein (human, UniProt Q96RJ3 1-78, biotinylated in the competition ELISA).
T1 construct: Bought reagent; also called human BAFFR:Fc; bio-BAFFR:Fc; not shown: Fc part of the bought fusion protein (Alexis / Axxora)
T1 sequence: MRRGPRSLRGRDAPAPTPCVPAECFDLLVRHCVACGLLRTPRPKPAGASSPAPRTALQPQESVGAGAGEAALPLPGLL
Nature of the assay: BLyS/BAFFR:Fc competition ELISA; antibody titrated, BLyS coated. The procedure: 96-well MaxiSorp plates are coated over night at 4° C. with human soluble BLyS. After coating, the wells were washed 4 times with PBS/0.05% Tween20 (PBST) and then blocked for 1 h at 37° C. with PBST containing 1% bovine serum albumin followed by 4 washing steps with PBST. Biotinylated human BAFFR:Fc fusion protein (Axxora) at 20 ng/ml was added and captured for 1 h at 37° C. together with increasing concentrations of anti-BAFFR antibodies. After another washing round, ExtrAvidin-Alkaline Phosphatase (Sigma) was added to the wells and incubated for 30 minutes at 37° C. The bound phosphatase was detected by adding a solution containing p-nitrophenyl phosphate in diethanolamin (Sigma). The color reaction was stopped after ca. 20 minutes with an equal volume of 2N sodium hydroxide and the absorbance was measured at 405 nm on a plate reader (SpectraMax 190, Molecular Devices).
(An ELISA detects its analyte on a solid surface through an enzyme-linked reagent.)

Assay [1] has as its target T2, human BAFF receptor (BAFFR) (human, UniProt Q96RJ3 1-184).
T2 sequence: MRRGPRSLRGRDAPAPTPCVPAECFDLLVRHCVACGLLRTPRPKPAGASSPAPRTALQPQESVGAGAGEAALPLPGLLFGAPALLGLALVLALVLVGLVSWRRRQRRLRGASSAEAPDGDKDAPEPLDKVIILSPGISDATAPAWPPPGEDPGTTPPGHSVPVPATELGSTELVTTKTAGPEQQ
Nature of the assay: cell-based or functional assay.

Assay [2] addresses T2, human BAFF receptor (BAFFR). As to the kind of experiment: competition FACS on Raji cells; Fab titrated, competitor biotinylated hsBLyS. The procedure:
The BAFFR-BLyS binding assay is performed using Raji cells expressing endogenous BAFFR. The BAFFR specific Fabs are used in final dilutions ranging from 40 to 0.001 nM. The diluted Fabs are incubated in 96-well plates with 5×10⁴ Raji cells per well for 1 h at 4° C. on a shaker. Then biotinylated hsBLyS is added in a final concentration of 25 ng/ml and the cells were incubated for 30 min at 4° C. on a shaker. The cells are washed twice with FACS buffer and then resuspended in phycoerythrin-conjugated Streptavidin (Dianova) which has been diluted 1:200 in FACS buffer. The staining is performed for one hour at 4° C. on a shaker. Finally the cells are washed twice with FAGS buffer, resuspended in FACS buffer and BLyS binding to cell surface BAFFR is detected via fluorescence cytometry in the FACSArray instrument (Becton Dickinson).
The IC50 values of the antibodies of the invention in a human Fab format are determined in a BAFFR-BLyS binding inhibition assay by Fab titration on Raji cells (FACS).

For assay [3], the target named is T3, recombinant BCMA Fc-fusion protein (UniProt Q02223 1-54, limits assumed).
T3 construct: not shown: Fc part
T3 sequence (looked up): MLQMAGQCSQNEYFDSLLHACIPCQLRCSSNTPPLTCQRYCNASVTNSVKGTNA
As to the kind of experiment: ELISA on Fc-captured recombinant BCMA Fc-fusion. The procedure: (§1) 384-well MaxiSorp plates are coated over night at 4° C. with a goat anti-human IgG, Fc γ fragment specific capture antibody. After coating the wells were washed twice with PBS/0.05% Tween20 (PBST) and then blocked for 1 h at RT with PBST containing 5% milk powder followed by two washing steps with PBST. Recombinant BCMA and TACI Fc-fusion proteins are added and captured for 1 h at RT. Then the purified and diluted BAFFR specific Fabs are added and the plates are incubated for 1 h at RT. To detect the Fabs, an alkaline phosphatase (AP)-conjugated goat anti-human IgG, Fab specific is added and the plates are incubated for 1 h at RT. Following each incubation step the wells are washed five times with PBST. For the detection of the AP-conjugates, AttoPhos (Roche) is used according to the manufacturer's instructions. Fluorescence is measured using a TECAN Spectrafluor plate reader.
(§2) In ELISA the Fabs are titrated from 400 nM down to 0.005 nM on […] captured to a Maxisorp plate via an anti-human Fc antibody. Only MOR07342 and MOR07346 show some cross-reactivity to BCMA at high Fab concentrations >100 nM. In contrast MOR06654, MOR07347, MOR07348, MOR07349 show no binding to BCMA above background. A 1000-fold discrimination factor is met by all Fabs.

Assay [4] deals with T2, human BAFF receptor (BAFFR). Nature of the assay: FACS titration of Fab on transfected HEK293-hBAFFR cells. On the procedure: (§3) The EC₅₀ of the Fabs is determined by Fab titration in FACS on transfected HEK293 cells as well as on Raji cells expressing endogenous BAFFR.
The target of assay [5] is T4, BCMA on transfected HEK293 cells (UniProt Q02223 1-184, limits assumed).
T4 construct: whole, on cells
T4 sequence (looked up): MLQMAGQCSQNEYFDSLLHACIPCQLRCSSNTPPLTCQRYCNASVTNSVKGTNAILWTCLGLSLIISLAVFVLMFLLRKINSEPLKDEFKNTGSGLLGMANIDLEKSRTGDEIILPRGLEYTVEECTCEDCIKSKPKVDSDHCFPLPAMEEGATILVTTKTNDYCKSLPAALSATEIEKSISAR
As to the kind of experiment: FACS on BCMA-transfected HEK293 cells. The procedure: In FACS the following Fabs are analyzed on BCMA-transfected HEK293 cells and titrated from 1 μM down to 0.005 nM: MOR06654, MOR06743, MOR07342, MOR07347, MOR7348 and MOR07349. At 330 nM only MOR07342 show an elevated binding signal which is 2-fold over background. All other tested Fabs show no signal at this concentration.

Assay [6] has as its target T2, human BAFF receptor (BAFFR). As to the kind of experiment: FACS titration of Fab on Raji cells (endogenous BAFFR). The procedure:
as §3

For assay [7], the target named is T3, recombinant BCMA Fc-fusion protein. Nature of the assay: ELISA titration on Fc-captured antigen. On the procedure:
as §1, §2

B1: MOR06743 Fab (Fab, V domains shown)
VH: QVQLQQSGPGLVKPSQTLSLTCAISGDSVSSNSAAWGWIRQSPGRGLEWLGRIYYRSKWYNSYAVSVKSRITINPDTSKNQFSLQLNSVTPEDTAVYYCARYDWVPKIGVFDSWGQGTLVTVSS
VL: DIVLTQSPATLSLSPGERATLSCRASQMIDLRYLSWYQQKPGQAPRLLIYGSSSRATGVPARFSGSGSGTDFTLTISSLEPEDFAVYYCQQLYSSPMTFGQGTKVEIK
notes: Human Fab format; also called MOR6743
In the assay with BAFFR:Fc fusion protein, B1 came in with an IC50 of 0.1 nM. In assay [1], the “B-cell proliferation Agonism EC50” value was more than 187 nM and the “B-cell proliferation Inhibition IC50” value was 2 nM.

B2: MOR07685 Fab (Fab, V domains shown)
VH: QVQLQQSGPGLVKPSQTLSLTCAISGDSVSSNSAAWGWIRQSPGRGLEWLGRIYYRSKWYNSYAVSVKSRITINPDTSKNQFSLQLNSVTPEDTAVYYCARYQWVPKIGVFDSWGQGTLVTVSS
VL: DIVLTQSPATLSLSPGERATLSCRASQMIDLRYLSWYQQKPGQAPRLLIYGSSSRATGVPARFSGSGSGTDFTLTISSLEPEDFAVYYCQQLYSSPMTFGQGTKVEIK
Regarding B2, the IC50 in assay [2] came to 0.12 nM.

B3: MOR07349 Fab (Fab, V domains shown)
VH: QVQLQQSGPGLVKPSQTLSLTCAISGDSVSSNSAAWGWIRQSPGRGLEWLGRIYYRSKWWNDYAVSVKSRITINPDTSKNQFSLQLNSVTPEDTAVYYCARYDWVPKIGVFDGWGQGTLVTVSS
VL: DIVLTQSPATLSLSPGERATLSCRASQMIDLRYLSWYQQKPGQAPRLLIYGSSSRATGVPARFSGSGSGTDFTLTISSLEPEDFAVYYCQQFYSSPLTFGQGTKVEIK
notes: Human Fab format
For the molecule B3, the binding result is on record as “no binding (tested: titrated from 400 nM down to 0.005 nM)” in assay [3] and “no binding (tested: 1 µM)” in assay [5]. Also, the values for the IC50 (with BAFFR:Fc fusion protein; in assay [2]) were 0.44 nM and 0.17 nM, respectively. The EC50 in assay [4] amounted to 0.24 nM; in assay [6] it was 0.13 nM. Moreover, the “discrimination factor (BAFFR over BCMA)” value in assay [7] is not below 1000 fold. Moreover, the “B-cell proliferation Agonism EC50” value in assay [1] was more than 187 nM. For the same molecule, the “B-cell proliferation Inhibition IC50” value in assay [1] came out at 3.5 nM.

B4: MOR07348 Fab (Fab, V domains shown)
VH: QVQLQQSGPGLVKPSQTLSLTCAISGDSVSSNSAAWGWIRQSPGRGLEWLGRIYYRSKWYNSYAVSVKSRITINPDTSKNQFSLQLNSVTPEDTAVYYCARYDWVPKIGVFDLWGQGTLVTVSS
VL: DIVLTQSPATLSLSPGERATLSCRASQWIEAGYLSWYQQKPGQAPRLLIYGSSSRATGVPARFSGSGSGTDFTLTISSLEPEDFAVYYCQQLYSSPMTFGQGTKVEIK
notes: Human Fab format; also called MOR7348; MOR007348
As for B4, the binding result in assay [3] is reported as “no binding (tested: titrated from 400 nM down to 0.005 nM)”; in assay [5], “no binding (tested: 1 µM)”. Moreover, the IC50 with BAFFR:Fc fusion protein is 0.96 nM; in assay [2], 0.2 nM. In addition, the results for the EC50 in assay [4] and in assay [6] were 0.24 nM and 0.12 nM, respectively. The “discrimination factor (BAFFR over BCMA)” value in assay [7] is not below 1000 fold. Also, in assay [1], the “B-cell proliferation Agonism EC50” value was more than 187 nM. The “B-cell proliferation Inhibition IC50” value in assay [1] is 2.9 nM.

B5: MOR07347 Fab (Fab, V domains shown)
VH: QVQLQQSGPGLVKPSQTLSLTCAISGDSVSSNSAAWGWIRQSPGRGLEWLGRIYYRSKWYNSYAVSVKSRITINPDTSKNQFSLQLNSVTPEDTAVYYCARYQWVPKIGVFDSWGQGTLVTVSS
VL: DIVLTQSPATLSLSPGERATLSCRASQEILPEYLSWYQQKPGQAPRLLIYGSSSRATGVPARFSGSGSGTDFTLTISSLEPEDFAVYYCQQFYSSPLTFGQGTKVEIK
notes: Human Fab format
For B5, in assay [3], the binding result is recorded as “no binding (tested: titrated from 400 nM down to 0.005 nM)”. The figures for the IC50 (in the assay with BAFFR:Fc fusion protein; in assay [2]) were 0.1 nM and 0.02 nM, respectively. This molecule also registered a 50% effective concentration (EC50) in assay [4] of 0.08 nM. Also, in assay [7], the “discrimination factor (BAFFR over BCMA)” value is not below 1000 fold. For the same molecule, in assay [1], the “B-cell proliferation Agonism EC50” value was more than 187 nM. Besides, the “B-cell proliferation Inhibition IC50” value in assay [1] was 1.3 nM.

B6: MOR07342 Fab (Fab, V domains shown)
VH: QVQLQQSGPGLVKPSQTLSLTCAISGDSVSSNSAAWGWIRQSPGRGLEWLGRIYYRSKWYNNYAVSVKSRITINPDTSKNQFSLQLNSVTPEDTAVYYCARYKWVPKIGVFDSWGQGTLVTVSS
VL: DIVLTQSPATLSLSPGERATLSCRASQMIDLRYLSWYQQKPGQAPRLLIYGSSSRATGVPARFSGSGSGTDFTLTISSLEPEDFAVYYCQQFYSSPLTFGQGTKVEIK
notes: Human Fab format
In the case of B6, the IC50 with BAFFR:Fc fusion protein is 0.14 nM; in assay [2], 0.09 nM. For the same molecule, the EC50 amounted to 0.18 nM in assay [4] and 0.06 nM in assay [6]. The “discrimination factor (BAFFR over BCMA)” value in assay [7] was not below 1000 fold. In addition, the “B-cell proliferation Agonism EC50” value in assay [1] is more than 187 nM. Also, in assay [1], the “B-cell proliferation Inhibition IC50” value was found to be 0.9 nM.
